# Test results reported in PMC12400190, “Crystal structures of 40- and 71-substitution variants of hydroxynitrile lyase from rubber tree” (Acta Crystallographica Section D: Structural Biology, 2025).
# How the values were obtained:
# Settings in all cases: 5 mM BES pH 7.2, 7-8% (v/v) acetonitrile
# [1] = biological target: T1, HbHNL (Hevea brasiliensis, UniProt P52704); test: spectrophotometric ester hydrolysis at […] nm, Michaelis-Menten fit; format: biochemical
# T1 construct: gene HNL; full length 257 aa; variant structures 8sni (HNL40), 9clr (HNL71); dimer
# [2] = biological target: T2, SABP2 (Nicotiana tabacum, UniProt Q6RYA0); test: as above; format: biochemical
# T2 construct: production of the assayed sample not described in the main text
# T2 sequence (Q6RYA0 1-260): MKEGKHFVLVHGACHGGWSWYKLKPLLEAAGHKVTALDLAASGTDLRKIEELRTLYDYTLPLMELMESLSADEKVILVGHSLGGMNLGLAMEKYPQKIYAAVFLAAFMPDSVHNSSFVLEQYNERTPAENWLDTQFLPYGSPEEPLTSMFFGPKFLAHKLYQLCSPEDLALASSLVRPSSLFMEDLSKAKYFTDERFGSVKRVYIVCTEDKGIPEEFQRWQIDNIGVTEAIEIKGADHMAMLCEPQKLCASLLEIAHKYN
# [3] = tested on: CC(=O)Oc1ccc([N+](=O)[O-])cc1; test: purified protein
# T1 sequence (P52704 whole entry): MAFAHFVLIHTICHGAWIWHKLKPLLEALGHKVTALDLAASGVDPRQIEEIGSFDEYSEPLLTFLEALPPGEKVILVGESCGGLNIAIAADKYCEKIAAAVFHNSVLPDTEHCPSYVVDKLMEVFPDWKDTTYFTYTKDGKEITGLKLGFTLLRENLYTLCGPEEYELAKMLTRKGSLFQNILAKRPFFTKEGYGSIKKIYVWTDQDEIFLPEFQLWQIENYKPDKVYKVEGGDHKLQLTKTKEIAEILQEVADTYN
Molecule,Km [1] [µM],Km [2] [µM],Km [3] [µM],kcat [3] [s⁻¹],kcat/Km [3] [M⁻¹ s⁻¹]
CC(=O)Oc1ccc([N+](=O)[O-])cc1 [p-nitrophenyl acetate],3000 ± 400,2200 ± 200,–,–,–
HbHNL (Hevea brasiliensis; C81L/E79H/F210I/H103V/I12A/I209G/K236M/L121Y/L146M/L148F/L152F/N104A/T11G/T151K/V106F/V118L),–,–,600 ± 200,0.00583 ± 0.000167,10.7
